# According to US20200148733A1 (Pieris, published 2020):
# T1: lipocalin mutein SEQ ID NO: 10
# T1 construct: Human NGAL (lipocalin 2) mutein specific for IL-23p19
# T1 chain: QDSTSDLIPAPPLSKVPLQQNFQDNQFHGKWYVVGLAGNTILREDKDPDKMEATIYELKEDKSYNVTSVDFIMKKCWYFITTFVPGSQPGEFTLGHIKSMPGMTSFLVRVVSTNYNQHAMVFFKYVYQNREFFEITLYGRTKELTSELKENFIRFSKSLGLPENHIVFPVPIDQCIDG
# T2: lipocalin mutein SEQ ID NO: 9
# T2 construct: Human NGAL (lipocalin 2) mutein specific for IL-23p19
# T2 chain: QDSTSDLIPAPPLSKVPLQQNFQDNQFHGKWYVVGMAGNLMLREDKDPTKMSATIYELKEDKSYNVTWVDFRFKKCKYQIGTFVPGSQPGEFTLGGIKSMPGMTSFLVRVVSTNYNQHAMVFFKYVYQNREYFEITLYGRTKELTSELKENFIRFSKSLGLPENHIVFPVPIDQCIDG
# B1: cynomolgus monkey IL-17A (ligand)
# chain: GIAIPRNSGCPNSEDKNFPRTVMVNLNIHNRNTSTNPKRSSDYYNRSTSPWNLHRNEDPERYPSVIWEAKCRHLGCVKADGNVDYHMNSVPIQQEILVLRREPRHCPNSFRLEKILVSVGCTCVTPIVHHVA
# notes: also called cIL-17A; cIL-17-A
# B2: mouse IL-23 (ligand)
# chain 1: VPRSSSPDWAQCQQLSRNLCMLAWNAHAPAGHMNLLREEEDEETKNNVPRIQCEDGCDPQGLKDNSQFCLQRIRQGLAFYKHLLDSDIFKGEPALLPDSPMEQLHTSLLGLSQLLQPEDHPRETQQMPSLSSSQQWQRPLLRSKILRSLQAFLAIAARVFAHGAATLTEPLVPTA
# chain 2: MWELEKDVYVVEVDWTPDAPGETVNLTCDTPEEDDITWTSDQRHGVIGSGKTLTITVKEFLDAGQYTCHKGGETLSHSHLLLHKKENGIWSTEILKNFKNKTFLKCEAPNYSGRFTCSWLVQRNMDLKFNIKSSSSSPDSRAVTCGMASLSAEKVTLDQRDYEKYSVSCQEDVTCPTAEETLPIELALEARQQNKYENYSTSFFIRDIIKPDPPKNLQMKPLKNSQVEVSWEYPDSWSTPHSYFSLKFFVRIQRKKEKMKETEEGCNQKGAFLVEKTSTEVQCKGGNVCVQAQDRYYNSSCSKWACVPCRVRS
# notes: also called mIL-23
# B3: human IL-23 (ligand)
# chain 1: RAVPGGSSPAWTQCQQLSQKLCTLAWSAHPLVGHMDLREEGDEETTNDVPHIQCGDGCDPQGLRDNSQFCLQRIHQGLIFYEKLLGSDIFTGEPSLLPDSPVGQLHASLLGLSQLLQPEGHHWETQQIPSLSPSQPWQRLLLRFKILRSLQAFVAVAARVFAHGAATLSP
# chain 2: IWELKKDVYVVELDWYPDAPGEMVVLTCDTPEEDGITWTLDQSSEVLGSGKTLTIQVKEFGDAGQYTCHKGGEVLSHSLLLLHKKEDGIWSTDILKDQKEPKNKTFLRCEAKNYSGRFTCWWLTTISTDLTFSVKSSRGSSDPQGVTCGAATLSAERVRGDNKEYEYSVECQEDSACPAAEESLPIEVMVDAVHKLKYENYTSSFFIRDIIKPDPPKNLQLKPLKNSRQVEVSWEYPDTWSTPHSYFSLTFCVQVQGKSKREKKDRVFTDKTSATVICRKNASISVRAQDRYYSSSWSEWASVPCS
# notes: Heterodimer of p19 and p40; in the proliferation assays CAT # HZ-1254, HumanZyme; also called hIL-23; hIL23
# B4: ABD fusion (SEQ ID NO: 42) (designed binder)
# chain: QDSTSDLIPAPPLSKVPLQQNFQDNQFHGKWYVVGEAGNLLLREDKDPRKMTATIYELKEDKSYNVTRVEFGVKTYKYQIGTFVPGSQPGEFTLGGIKSMPGMTSFLVRVVSTNYNQHAMVFFKYVYQNREYFEITLYGRTKELTSELKENFIRFSKSLGLPENHIVFPVPIDQAIDGSAGAVDANSLAEAKVLANRELDKYGVSDYYKNLINNAKTVEGVKALIDEILAALP
# B5: benchmark antibody 2 (antibody, human IgG4, kappa, V domains shown)
# VH: QVQLVQSGAEVKKPGSSVKVSCKASGYSFTDYHISWVRQAPGQGLEWMGVINPEYGTTDYNQRFKGRVTITADESTSTAYMELSSLRSEDTAVYYCARYDYFTGTGAYWGQGTLVTVSS
# VL: DIVMTQTPLSLSVTPGQPASISCRSSQSLKHSRGNTFLHWYLQKPGQSPQLLIYKVSNRFIGVPDRFSGSGSGTDFTLKISRVEAEDVGVYYCSQSTHYPFTFGQGTKLEIKR
# Assays:
# [1] = biological target: T3, lipocalin mutein SEQ ID NO: 5; assay: solution competition ELISA: 0.5 nM SEQ ID NO: 5 pre-incubated with varied ligand, free mutein captured on immobilised biotinylated hIL-17A (competitor)
# T3 construct: Human tear lipocalin (Tlc) mutein specific for IL-17A; also called Tlc mutein
# T3 sequence (chain, as listed by the source): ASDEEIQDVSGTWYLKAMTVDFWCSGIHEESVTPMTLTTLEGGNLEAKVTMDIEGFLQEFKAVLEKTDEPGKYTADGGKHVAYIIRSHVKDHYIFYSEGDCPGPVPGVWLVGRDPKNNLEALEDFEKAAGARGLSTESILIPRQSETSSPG
# Procedure: (§1) In the following detailed experimental protocol, incubation and washing steps were performed as described above in the competition ELISA protocol. A 384-well plate suitable for fluorescence measurements (Greiner FLUOTRAC™ 600, black flat bottom, high-binding) was coated with 20 μl of Neutravidin at a concentration of 5 μg/ml in PBS over night at 4° C. After washing, the Neutravidin-coated wells were blocked with 100 μl blocking buffer (PBS-T/BSA) for 1h at room temperature.
# [2] = biological target: T1, lipocalin mutein SEQ ID NO: 10; assay: solution competition ELISA: 1 nM SEQ ID NO: 10 pre-incubated with varied ligand, free mutein captured on immobilised biotinylated hIL-23 (competitor)
# Procedure: as §1, with “PBS-T/BSA” for “blocking buffer (PBS-T/BSA)”
# [3] = biological target: T2, lipocalin mutein SEQ ID NO: 9; assay: solution competition ELISA: 10 nM SEQ ID NO: 9 pre-incubated with varied ligand, free mutein captured on immobilised biotinylated hIL-23 (competitor)
# Procedure: as §1, with “PBS-T/BSA” for “blocking buffer (PBS-T/BSA)”
# [4] = biological target: T4, lipocalin mutein SEQ ID NO: 13; assay: solution competition ELISA: 100 nM mutein (C-terminal Streptag) pre-incubated with varied ligand, free mutein captured on immobilised biotinylated hIL-23 (competitor)
# T4 construct: Tear lipocalin mutein specific for IL-23p19
# T4 sequence (chain, as listed by the source): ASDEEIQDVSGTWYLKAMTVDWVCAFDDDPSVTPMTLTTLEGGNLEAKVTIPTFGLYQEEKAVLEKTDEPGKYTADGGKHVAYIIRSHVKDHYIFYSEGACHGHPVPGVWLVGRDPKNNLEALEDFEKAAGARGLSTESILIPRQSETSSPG
# Procedure: as §1
# (§2) Note that the lipocalein muteins contained a C-terminal Streptag fusion to allow binding and subsequent detection with the aid of an anti-Streptag antibody.
# (§3) The residual supernatants were discarded and 20 μl of HRP-conjugated anti-Streptag IgG antibody (Genscript) was added at a predetermined optimal concentration in PBS-T/BSA and incubated for 1 h at RT. After washing, 20 μl fluorogenic HRP substrate (Quantablue, Pierce) was added to each well, and the reaction allowed to proceed for 30 minutes.
# [5] = biological target: T5, lipocalin mutein SEQ ID NO: 6; assay: as above
# T5 construct: Tear lipocalin mutein specific for IL-23p19
# T5 sequence (chain, as listed by the source): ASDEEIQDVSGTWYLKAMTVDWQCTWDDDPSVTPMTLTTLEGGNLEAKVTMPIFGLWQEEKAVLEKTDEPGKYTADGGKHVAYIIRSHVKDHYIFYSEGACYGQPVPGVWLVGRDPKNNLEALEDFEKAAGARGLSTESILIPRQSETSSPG
# Procedure: as §1, §2, §3
# [6] = biological target: T6, lipocalin mutein SEQ ID NO: 12; assay: as above
# T6 construct: Tear lipocalin mutein specific for IL-23p19
# T6 sequence (chain, as listed by the source): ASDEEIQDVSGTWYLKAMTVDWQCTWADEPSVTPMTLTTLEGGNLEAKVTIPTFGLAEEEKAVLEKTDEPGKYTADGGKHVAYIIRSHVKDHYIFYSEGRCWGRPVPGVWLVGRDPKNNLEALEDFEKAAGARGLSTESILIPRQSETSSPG
# Procedure: as §1, §2, §3
# human IL-23 = biological target: B3; assay: cell-based or functional assay
# human IL-17A = human IL-17A (human, UniProt Q16552 24-155); assay: cell-based or functional assay
binder,measurement,setting,value
B1,IC50,[1],0.3 nM
B2,IC50,[2],361 nM
same,IC50,[3],88 nM
B3,IC50,[4],24 nM
same,IC50,[5],89 nM
same,IC50,[6],66 nM
same,IC50,[2],1.4 nM
same,IC50,[3],55 nM
B4,"IC50 (experiment of FIG. 19), hIL-23-induced proliferation of Ba/F3 cells expressing hIL-23R and hIL-12Rβ1",human IL-23,0.22 nM
same,"IC50 (three independent experiments), hIL-23-induced proliferation of Ba/F3 cells expressing hIL-23R and hIL-12Rβ1",human IL-23,0.41 nM
B5,"IC50, hIL-17A-induced secretion of G-CSF in U87-MG cells",human IL-17A,0.6 nM
